Test results: US20170121382A1 (published 2017)
Like-named read-outs stand apart in the source and are kept apart here. Blank lines part the entries; values can stand above or below the binder they belong to.

How the values were obtained:
Test in all cases: SPR
human recombinant DMP1 [1] = target: T1, human recombinant DMP1 (human, UniProt Q13316 17-513)
T1 chain: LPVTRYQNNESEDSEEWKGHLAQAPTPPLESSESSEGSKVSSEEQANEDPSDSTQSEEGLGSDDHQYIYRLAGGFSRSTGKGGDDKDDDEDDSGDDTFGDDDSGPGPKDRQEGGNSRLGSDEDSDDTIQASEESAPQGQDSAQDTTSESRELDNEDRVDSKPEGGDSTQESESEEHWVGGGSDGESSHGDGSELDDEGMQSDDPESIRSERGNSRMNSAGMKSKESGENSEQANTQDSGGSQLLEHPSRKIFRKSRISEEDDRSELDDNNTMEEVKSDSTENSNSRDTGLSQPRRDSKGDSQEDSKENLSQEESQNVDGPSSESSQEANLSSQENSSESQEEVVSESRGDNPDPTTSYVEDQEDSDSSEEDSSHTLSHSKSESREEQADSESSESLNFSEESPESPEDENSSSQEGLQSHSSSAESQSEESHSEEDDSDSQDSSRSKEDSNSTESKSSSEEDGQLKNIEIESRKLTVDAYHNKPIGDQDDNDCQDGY

human recombinant DMP1 [2] = target: T1, human recombinant DMP1
ASARM peptide = target: ASARM peptide

Kd (human recombinant DMP1 [1]): 0.248 µM
Kd (human recombinant DMP1 [2]): 0.248 µM
B1: soluble human recombinant PHEX (enzyme)
chain: SLQAKQEYCLKPECIEAAAAILSKVNLSVDPCDNFFRFACDGWISNNPIPEDMPSYGVYPWLRHNVDLKLKELLEKSISRRRDTEAIQKAKILYSSCMNEKAIEKADAKPLLHILRHSPFRWPVLESNIGPEGVWSERKFSLLQTLATFRGQYSNSVFIRLYVSPDDKASNEHILKLDQATLSLAVREDYLDNSTEAKSYRDALYKFMVDTAVLLGANSSRAEHDMKSVLRLEIKIAEIMIPHENRTSEAMYNKMNISELSAMIPQFDWLGYIKKVIDTRLYPHLKDISPSENVVVRVPQYFKDLFRILGSERKKTIANYLVWRMVYSRIPNLSRRFQYRWLEFSRVIQGTTTLLPQWDKCVNFIESALPYVVGKMFVDVYFQEDKKEMMEELVEGVRWAFIDMLEKENEWMDAGTKRKAKEKARAVLAKVGYPEFIMNDTHVNEDLKAIKFSEADYFGNVLQTRKYLAQSDFFWLRKAVPKTEWFTNPTTVNAFYSASTNQIRFPAGELQKPFFWGTEYPRSLSYGAIGVIVGHEFTHGFDNNGRKYDKNGNLDPWWSTESEEKFKEKTKCMINQYSNYYWKKAGLNVKGKRTLGENIADNGGLREAFRAYRKWINDRRQGLEEPLLPGITFTNNQLFFLSYAHVRCNSYRPEAAREQVQIGAHSPPQFRVNGAISNFEEFQKAFNCPPNSTMNRGMDSCRLW

Kd (ASARM peptide): 0.176 µM
B2: PHEX (enzyme)
chain: B1 chain
